Laboratory results published in publication PMC9482650, “Quantitative fragmentomics allow affinity mapping of interactomes” (Nature Communications, 2022).
Numbering of substitutions follows the chain as printed.

T1: APBA1_2, Q02410
T1 sequence (Q02410 742-832, limits assumed, looked up): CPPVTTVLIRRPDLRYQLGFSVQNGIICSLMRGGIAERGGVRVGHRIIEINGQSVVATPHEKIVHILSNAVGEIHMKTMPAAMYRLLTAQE

T2: APBA2_2, Q99767
T2 sequence (Q99767 654-744, limits assumed, looked up): T1 sequence (Q02410 742-832, limits assumed, looked up) with R10K, R15K, P59A, H65Q, I66A, A70S, Y84F, A89G

T3: ARHGAP21, Q5T5U3
T3 sequence (Q5T5U3 45-169, limits assumed, looked up): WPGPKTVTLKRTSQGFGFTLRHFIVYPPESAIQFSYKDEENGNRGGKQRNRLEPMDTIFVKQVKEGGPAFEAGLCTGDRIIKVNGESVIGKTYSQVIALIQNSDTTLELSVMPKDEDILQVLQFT

T4: GRIP1_4, Q9Y3R0
T4 sequence (Q9Y3R0 467-571, limits assumed, looked up): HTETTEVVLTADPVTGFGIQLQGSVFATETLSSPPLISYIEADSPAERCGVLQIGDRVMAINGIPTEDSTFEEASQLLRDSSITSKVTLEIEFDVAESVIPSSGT

T5: MPP2, Q14168
T5 sequence (Q14168 180-250, limits assumed, looked up): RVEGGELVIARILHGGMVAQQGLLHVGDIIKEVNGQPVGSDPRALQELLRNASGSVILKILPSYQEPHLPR

T6: MPP6, Q9NZW5
T6 sequence (Q9NZW5 125-219, limits assumed, looked up): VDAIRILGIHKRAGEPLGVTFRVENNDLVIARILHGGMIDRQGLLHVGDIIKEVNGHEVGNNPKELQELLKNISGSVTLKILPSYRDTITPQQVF

T7: NHERF3_3, Q5T2W1
T7 sequence (Q5T2W1 238-333, limits assumed, looked up): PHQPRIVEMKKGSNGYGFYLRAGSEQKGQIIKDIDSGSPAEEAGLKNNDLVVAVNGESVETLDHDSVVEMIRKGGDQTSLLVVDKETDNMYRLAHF

T8: PCLO, Q9Y6V0
T8 sequence (Q9Y6V0 4491-4600, limits assumed, looked up): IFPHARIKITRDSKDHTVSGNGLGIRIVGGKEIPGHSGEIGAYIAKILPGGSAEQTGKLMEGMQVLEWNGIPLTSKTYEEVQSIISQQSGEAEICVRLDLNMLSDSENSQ

T9: SNTA1, Q13424
T9 sequence (Q13424 82-180, limits assumed, looked up): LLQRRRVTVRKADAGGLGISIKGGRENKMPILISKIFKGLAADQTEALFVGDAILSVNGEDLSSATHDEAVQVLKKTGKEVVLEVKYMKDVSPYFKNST


target: T1, APBA1_2, Q02410; assay: holdup assay; parameters: key: below the threshold = too weak to quantify, mostly under pKd 3.1 to 4; details: plain residues with an end cap or a label only (N-terminal biotin on a linker: ado-ado)

Row | Binder | pKd
1 | LDKESFLTWL [YAP1, P46937] | 4.88
2 | RDFDYIADWC [PKN2, Q16513] | 3.82

target: T2, APBA2_2, Q99767; assay: holdup assay; parameters: key: below the threshold = too weak to quantify, mostly under pKd 3.1 to 4; details: plain residues with an end cap or a label only (N-terminal biotin on a linker: ado-ado)

Row | Binder | pKd
3 | LDKESFLTWL [YAP1, P46937] | below the threshold
4 | RDFDYIADWC [PKN2, Q16513] | below the threshold

target: T3, ARHGAP21, Q5T5U3; assay: holdup assay; parameters: key: below the threshold = too weak to quantify, mostly under pKd 3.1 to 4; details: plain residues with an end cap or a label only (N-terminal biotin on a linker: ado-ado)

Row | Binder | pKd
5 | LDKESFLTWL [YAP1, P46937] | 4.89
6 | RDFDYIADWC [PKN2, Q16513] | 3.71

target: ARHGEF12, Q9NZN5-2; assay: holdup assay; parameters: key: below the threshold = too weak to quantify, mostly under pKd 3.1 to 4; details: plain residues with an end cap or a label only (N-terminal biotin on a linker: ado-ado)
Sequence (Q9NZN5 other isoform, or with tags, fused parts or gaps): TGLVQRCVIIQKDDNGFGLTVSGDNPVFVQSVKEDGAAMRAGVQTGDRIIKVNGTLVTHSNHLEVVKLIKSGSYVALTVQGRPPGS

Row | Binder | pKd
7 | LDKESFLTWL [YAP1, P46937] | 4.84
8 | RDFDYIADWC [PKN2, Q16513] | below the threshold

target: CASK, O14936; assay: holdup assay; parameters: key: below the threshold = too weak to quantify, mostly under pKd 3.1 to 4; details: plain residues with an end cap or a label only (N-terminal biotin on a linker: ado-ado)
Sequence (O14936 487-570): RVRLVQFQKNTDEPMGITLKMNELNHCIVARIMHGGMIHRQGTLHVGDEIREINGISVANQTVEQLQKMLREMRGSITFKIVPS

Row | Binder | pKd
9 | LDKESFLTWL [YAP1, P46937] | below the threshold
10 | RDFDYIADWC [PKN2, Q16513] | 3.54

target: DLG1_1, Q12959; assay: holdup assay; parameters: key: below the threshold = too weak to quantify, mostly under pKd 3.1 to 4; details: plain residues with an end cap or a label only (N-terminal biotin on a linker: ado-ado)

Row | Binder | pKd
11 | LDKESFLTWL [YAP1, P46937] | 4.01
12 | RDFDYIADWC [PKN2, Q16513] | below the threshold

target: DLG2_2, Q15700; assay: holdup assay; parameters: key: below the threshold = too weak to quantify, mostly under pKd 3.1 to 4; details: plain residues with an end cap or a label only (N-terminal biotin on a linker: ado-ado)
Sequence (Q15700 189-283): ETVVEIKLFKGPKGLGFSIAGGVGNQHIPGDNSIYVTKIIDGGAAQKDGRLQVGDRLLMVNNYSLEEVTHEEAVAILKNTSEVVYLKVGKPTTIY

Row | Binder | pKd
13 | LDKESFLTWL [YAP1, P46937] | below the threshold
14 | RDFDYIADWC [PKN2, Q16513] | below the threshold

target: DLG4_1, P78352; assay: holdup assay; parameters: key: below the threshold = too weak to quantify, mostly under pKd 3.1 to 4; details: plain residues with an end cap or a label only (N-terminal biotin on a linker: ado-ado)
Sequence (P78352 62-152): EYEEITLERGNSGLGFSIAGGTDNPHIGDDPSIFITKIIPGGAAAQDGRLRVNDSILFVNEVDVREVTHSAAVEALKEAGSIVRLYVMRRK

Row | Binder | pKd
15 | LDKESFLTWL [YAP1, P46937] | below the threshold
16 | RDFDYIADWC [PKN2, Q16513] | below the threshold

target: FRMPD2_1, Q68DX3; assay: holdup assay; parameters: key: below the threshold = too weak to quantify, mostly under pKd 3.1 to 4; details: plain residues with an end cap or a label only (N-terminal biotin on a linker: ado-ado)
Sequence (Q68DX3 770-861): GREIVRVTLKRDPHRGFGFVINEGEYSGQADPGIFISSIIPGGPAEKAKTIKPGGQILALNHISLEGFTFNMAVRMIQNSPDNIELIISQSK

Row | Binder | pKd
17 | LDKESFLTWL [YAP1, P46937] | below the threshold
18 | RDFDYIADWC [PKN2, Q16513] | below the threshold

target: FRMPD4, Q14CM0; assay: holdup assay; parameters: key: below the threshold = too weak to quantify, mostly under pKd 3.1 to 4; details: plain residues with an end cap or a label only (N-terminal biotin on a linker: ado-ado)
Sequence (Q14CM0 67-160): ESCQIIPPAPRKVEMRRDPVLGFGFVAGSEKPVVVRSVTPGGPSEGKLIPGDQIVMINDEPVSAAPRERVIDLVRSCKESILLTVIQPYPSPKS

Row | Binder | pKd
19 | LDKESFLTWL [YAP1, P46937] | 5.25
20 | RDFDYIADWC [PKN2, Q16513] | below the threshold

target: GORASP2, Q9H8Y8; assay: holdup assay; parameters: key: below the threshold = too weak to quantify, mostly under pKd 3.1 to 4; details: plain residues with an end cap or a label only (N-terminal biotin on a linker: ado-ado)

Row | Binder | pKd
21 | LDKESFLTWL [YAP1, P46937] | 4.84
22 | RDFDYIADWC [PKN2, Q16513] | 3.87

target: GRID2IP_1, A4D2P6; assay: holdup assay; parameters: key: below the threshold = too weak to quantify, mostly under pKd 3.1 to 4; details: plain residues with an end cap or a label only (N-terminal biotin on a linker: ado-ado)
Sequence (A4D2P6 1-87): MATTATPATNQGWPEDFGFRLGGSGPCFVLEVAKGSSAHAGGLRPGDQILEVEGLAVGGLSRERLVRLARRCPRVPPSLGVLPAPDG

Row | Binder | pKd
23 | LDKESFLTWL [YAP1, P46937] | below the threshold
24 | RDFDYIADWC [PKN2, Q16513] | below the threshold

target: T4, GRIP1_4, Q9Y3R0; assay: holdup assay; parameters: key: below the threshold = too weak to quantify, mostly under pKd 3.1 to 4; details: plain residues with an end cap or a label only (N-terminal biotin on a linker: ado-ado)

Row | Binder | pKd
25 | LDKESFLTWL [YAP1, P46937] | below the threshold
26 | RDFDYIADWC [PKN2, Q16513] | below the threshold

target: GRIP2_3, Q9C0E4; assay: holdup assay; parameters: key: below the threshold = too weak to quantify, mostly under pKd 3.1 to 4; details: plain residues with an end cap or a label only (N-terminal biotin on a linker: ado-ado)
Sequence (Q9C0E4 238-339): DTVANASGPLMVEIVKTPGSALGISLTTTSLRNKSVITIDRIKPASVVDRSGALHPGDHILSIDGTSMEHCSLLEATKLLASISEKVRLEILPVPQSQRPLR

Row | Binder | pKd
27 | LDKESFLTWL [YAP1, P46937] | below the threshold
28 | RDFDYIADWC [PKN2, Q16513] | below the threshold

target: IL16_4, Q14005; assay: holdup assay; parameters: key: below the threshold = too weak to quantify, mostly under pKd 3.1 to 4; details: plain residues with an end cap or a label only (N-terminal biotin on a linker: ado-ado)
Sequence (Q14005 1229-1329): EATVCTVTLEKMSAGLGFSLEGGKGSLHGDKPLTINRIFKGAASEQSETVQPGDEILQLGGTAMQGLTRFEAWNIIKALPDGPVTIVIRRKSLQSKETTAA

Row | Binder | pKd
29 | LDKESFLTWL [YAP1, P46937] | below the threshold
30 | RDFDYIADWC [PKN2, Q16513] | below the threshold

target: Inadl_2, Q8NI35; assay: holdup assay; parameters: key: below the threshold = too weak to quantify, mostly under pKd 3.1 to 4; details: plain residues with an end cap or a label only (N-terminal biotin on a linker: ado-ado)
Sequence (Q8NI35 238-335): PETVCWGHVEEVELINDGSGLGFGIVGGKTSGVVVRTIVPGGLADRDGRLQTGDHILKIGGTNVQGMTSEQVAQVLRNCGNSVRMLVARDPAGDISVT

Row | Binder | pKd
31 | LDKESFLTWL [YAP1, P46937] | 3.91
32 | RDFDYIADWC [PKN2, Q16513] | below the threshold

target: LIMK2, P53671; assay: holdup assay; parameters: key: below the threshold = too weak to quantify, mostly under pKd 3.1 to 4; details: plain residues with an end cap or a label only (N-terminal biotin on a linker: ado-ado)
Sequence (P53671 143-248): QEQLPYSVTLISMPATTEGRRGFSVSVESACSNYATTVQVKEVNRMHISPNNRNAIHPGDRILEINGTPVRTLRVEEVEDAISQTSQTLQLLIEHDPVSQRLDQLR

Row | Binder | pKd
33 | LDKESFLTWL [YAP1, P46937] | below the threshold
34 | RDFDYIADWC [PKN2, Q16513] | below the threshold

target: MAGI2_4, Q86UL8; assay: holdup assay; parameters: key: below the threshold = too weak to quantify, mostly under pKd 3.1 to 4; details: plain residues with an end cap or a label only (N-terminal biotin on a linker: ado-ado)
Sequence (Q86UL8 772-865): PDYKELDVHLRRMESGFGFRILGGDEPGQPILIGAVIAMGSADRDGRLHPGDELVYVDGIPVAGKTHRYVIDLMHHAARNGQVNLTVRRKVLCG

Row | Binder | pKd
35 | LDKESFLTWL [YAP1, P46937] | 3.94
36 | RDFDYIADWC [PKN2, Q16513] | 3.53

target: MAGI2_6, Q86UL8; assay: holdup assay; parameters: key: below the threshold = too weak to quantify, mostly under pKd 3.1 to 4; details: plain residues with an end cap or a label only (N-terminal biotin on a linker: ado-ado)
Sequence (Q86UL8 1141-1229): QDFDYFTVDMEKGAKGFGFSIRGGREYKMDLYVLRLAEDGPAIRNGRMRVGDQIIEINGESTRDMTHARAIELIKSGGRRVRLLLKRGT

Row | Binder | pKd
37 | LDKESFLTWL [YAP1, P46937] | 4.82
38 | RDFDYIADWC [PKN2, Q16513] | 3.77

target: MAGI3_2, Q5TCQ9; assay: holdup assay; parameters: key: below the threshold = too weak to quantify, mostly under pKd 3.1 to 4; details: plain residues with an end cap or a label only (N-terminal biotin on a linker: ado-ado)
Sequence (Q5TCQ9 398-503): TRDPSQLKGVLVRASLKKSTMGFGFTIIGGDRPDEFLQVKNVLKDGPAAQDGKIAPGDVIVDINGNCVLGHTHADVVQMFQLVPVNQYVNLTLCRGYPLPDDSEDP

Row | Binder | pKd
39 | LDKESFLTWL [YAP1, P46937] | 4.75
40 | RDFDYIADWC [PKN2, Q16513] | below the threshold

target: T5, MPP2, Q14168; assay: holdup assay; parameters: key: below the threshold = too weak to quantify, mostly under pKd 3.1 to 4; details: plain residues with an end cap or a label only (N-terminal biotin on a linker: ado-ado)

Row | Binder | pKd
41 | LDKESFLTWL [YAP1, P46937] | below the threshold
42 | RDFDYIADWC [PKN2, Q16513] | 3.49

target: T6, MPP6, Q9NZW5; assay: holdup assay; parameters: key: below the threshold = too weak to quantify, mostly under pKd 3.1 to 4; details: plain residues with an end cap or a label only (N-terminal biotin on a linker: ado-ado)

Row | Binder | pKd
43 | LDKESFLTWL [YAP1, P46937] | below the threshold
44 | RDFDYIADWC [PKN2, Q16513] | below the threshold

target: NHERF2_2, Q15599; assay: holdup assay; parameters: key: below the threshold = too weak to quantify, mostly under pKd 3.1 to 4; details: plain residues with an end cap or a label only (N-terminal biotin on a linker: ado-ado)
Sequence (Q15599 142-238): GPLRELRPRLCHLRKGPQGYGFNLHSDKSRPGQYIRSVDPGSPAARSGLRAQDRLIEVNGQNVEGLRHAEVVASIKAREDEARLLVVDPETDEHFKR

Row | Binder | pKd
45 | LDKESFLTWL [YAP1, P46937] | 5.19
46 | RDFDYIADWC [PKN2, Q16513] | below the threshold

target: T7, NHERF3_3, Q5T2W1; assay: holdup assay; parameters: key: below the threshold = too weak to quantify, mostly under pKd 3.1 to 4; details: plain residues with an end cap or a label only (N-terminal biotin on a linker: ado-ado)

Row | Binder | pKd
47 | LDKESFLTWL [YAP1, P46937] | 4.15
48 | RDFDYIADWC [PKN2, Q16513] | below the threshold

target: T8, PCLO, Q9Y6V0; assay: holdup assay; parameters: key: below the threshold = too weak to quantify, mostly under pKd 3.1 to 4; details: plain residues with an end cap or a label only (N-terminal biotin on a linker: ado-ado)

Row | Binder | pKd
49 | LDKESFLTWL [YAP1, P46937] | 3.57
50 | RDFDYIADWC [PKN2, Q16513] | below the threshold

target: PDLIM1, O00151; assay: holdup assay; parameters: key: below the threshold = too weak to quantify, mostly under pKd 3.1 to 4; details: plain residues with an end cap or a label only (N-terminal biotin on a linker: ado-ado)
Sequence (O00151 1-87): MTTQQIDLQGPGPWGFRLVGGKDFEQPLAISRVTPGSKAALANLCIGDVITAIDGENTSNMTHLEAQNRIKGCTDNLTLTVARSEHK

Row | Binder | pKd
51 | LDKESFLTWL [YAP1, P46937] | 4.1
52 | RDFDYIADWC [PKN2, Q16513] | below the threshold

target: T9, SNTA1, Q13424; assay: holdup assay; parameters: key: below the threshold = too weak to quantify, mostly under pKd 3.1 to 4; details: plain residues with an end cap or a label only (N-terminal biotin on a linker: ado-ado)

Row | Binder | pKd
53 | LDKESFLTWL [YAP1, P46937] | below the threshold
54 | RDFDYIADWC [PKN2, Q16513] | below the threshold

target: TJP2_1, Q9UDY2; assay: holdup assay; parameters: key: below the threshold = too weak to quantify, mostly under pKd 3.1 to 4; details: plain residues with an end cap or a label only (N-terminal biotin on a linker: ado-ado)
Sequence (Q9UDY2 24-128): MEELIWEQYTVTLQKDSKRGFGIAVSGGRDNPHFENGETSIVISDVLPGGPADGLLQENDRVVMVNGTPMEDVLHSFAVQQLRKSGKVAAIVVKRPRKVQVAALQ

Row | Binder | pKd
55 | LDKESFLTWL [YAP1, P46937] | 5.19
56 | RDFDYIADWC [PKN2, Q16513] | 4.48
